The values below come from US20220162261A1 (published 2022).

Where two headings read alike, the source gives them in different places. Numbered stars: 1 amine (or outer) side, 2 acyl side, 3 side chain; on linkers, the order of the positions; unused ones are H or OH. Bridge positions count the residues as written; N and C are the ends. Square brackets hold non-standard residues; d marks the D form. Ends that are not written are not given here. Glu(OMe) = L-glutamic acid gamma-methyl ester, COC(=O)CC[C@H](N[*:1])C(=O)[*:2]; Phe(4-COOH) = N[C@@H](Cc1ccc(C(=O)O)cc1)C(=O)O; Phe(4-tBu) = CC(C)(C)c1ccc(C[C@H](N)C(=O)O)cc1; NMeR = CN[C@@H](CCCNC(=N)N)C(=O)O; β3hE = N[C@@H](CCC(=O)O)CC(=O)O; NMeK = CN[C@@H](CCCCN)C(=O)O; Pen = CC(C)(S)[C@H](N)C(=O)O; βAla = NCCC(=O)O

Experiment [1] has as its target T1, human α4β7 integrin on cells (human, UniProt P13612 34-1032; P26010 20-798).
T1 construct: whole, on cells; also called α4β7 cell (Hu); RPMI8866 cells
The experiment is described as follows: PBMC memory T cell adhesion.

Experiment [2] deals with T1, human α4β7 integrin on cells. The experiment is described as follows: RPMI8866 cell adhesion to MAdCAM-1.
Experiment [3] deals with T2, rh integrin α4β7 (R&D Systems #5397-A30) (human, UniProt P13612 34-970; P26010 20-723).
T2 construct: bought; coated on a nickel coated plate; also called immobilized α4β7; immobilized α4β7 integrin protein
The experiment is described as follows: competition ELISA vs MAdCAM-1.

For experiment [4], the target named is T3, α4β1 (R&D Systems #5668-A4) (UniProt P13612 34-970; P05556 21-728, limits assumed).
T3 construct: bought; also called soluble α4β1
The experiment is described as follows: competition ELISA vs VCAM-1. (An ELISA detects its analyte on a solid surface through an enzyme-linked reagent.)

Experiment [5] has as its target T4, mouse α4β7 integrin on TK1 cells (mouse, UniProt Q00651 41-1039; P26011 20-806).
T4 construct: whole, on cells; also called α4β7 cell (Mu); Cell Adhesion α4β7 Mouse
The experiment is described as follows: TK1 cell adhesion to MAdCAM-1.

For experiment [6], the target named is T3, α4β1 (R&D Systems #5668-A4). Nature of the experiment: competition ELISA vs VCAM-1. This is another data set of the same source.
In experiment [7] the target is T2, rh integrin α4β7 (R&D Systems #5397-A30). Nature of the experiment: competition ELISA vs MAdCAM-1. The source holds these as a separate data set.
Experiment [8] has as its target T1, human α4β7 integrin on cells. Nature of the experiment: RPMI8866 cell adhesion to MAdCAM-1. The source holds these as a separate data set.
The target in experiment [9] is T5, human α4β1 integrin on cells (human, UniProt P13612 34-1032; P05556 21-798).
T5 construct: whole, on cells; also called α4β1 cell; Jurkat cells
The experiment is described as follows: Jurkat cell adhesion to VCAM-1.

T4 sequence (Q00651 41-1039, chain 1 of 2): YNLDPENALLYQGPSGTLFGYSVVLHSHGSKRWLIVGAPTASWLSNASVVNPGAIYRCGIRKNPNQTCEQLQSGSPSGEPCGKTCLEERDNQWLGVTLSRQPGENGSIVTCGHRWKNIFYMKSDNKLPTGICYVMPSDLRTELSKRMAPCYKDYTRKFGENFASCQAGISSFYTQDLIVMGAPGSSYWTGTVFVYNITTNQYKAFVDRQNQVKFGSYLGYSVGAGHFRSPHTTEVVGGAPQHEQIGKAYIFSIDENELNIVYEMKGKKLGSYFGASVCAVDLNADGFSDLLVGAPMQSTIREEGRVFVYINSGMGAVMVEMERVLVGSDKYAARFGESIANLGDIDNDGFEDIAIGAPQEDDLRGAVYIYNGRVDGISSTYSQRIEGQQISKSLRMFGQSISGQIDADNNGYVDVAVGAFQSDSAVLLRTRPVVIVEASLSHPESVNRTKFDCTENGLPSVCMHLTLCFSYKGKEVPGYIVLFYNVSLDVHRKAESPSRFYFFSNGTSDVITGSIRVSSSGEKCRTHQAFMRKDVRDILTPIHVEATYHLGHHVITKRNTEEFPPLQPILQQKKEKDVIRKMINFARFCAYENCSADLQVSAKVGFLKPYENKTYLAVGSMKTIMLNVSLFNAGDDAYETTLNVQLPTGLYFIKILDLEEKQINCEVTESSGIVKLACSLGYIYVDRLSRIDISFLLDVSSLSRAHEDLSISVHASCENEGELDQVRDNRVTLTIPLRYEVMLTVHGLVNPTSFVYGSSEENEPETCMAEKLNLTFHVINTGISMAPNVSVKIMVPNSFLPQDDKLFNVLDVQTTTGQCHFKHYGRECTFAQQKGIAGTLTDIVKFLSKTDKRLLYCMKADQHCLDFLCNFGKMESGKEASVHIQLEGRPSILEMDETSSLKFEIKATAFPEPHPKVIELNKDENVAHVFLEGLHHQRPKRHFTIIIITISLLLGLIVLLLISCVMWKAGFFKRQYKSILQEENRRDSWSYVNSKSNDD
T4 sequence (P26011 20-806, chain 2 of 2): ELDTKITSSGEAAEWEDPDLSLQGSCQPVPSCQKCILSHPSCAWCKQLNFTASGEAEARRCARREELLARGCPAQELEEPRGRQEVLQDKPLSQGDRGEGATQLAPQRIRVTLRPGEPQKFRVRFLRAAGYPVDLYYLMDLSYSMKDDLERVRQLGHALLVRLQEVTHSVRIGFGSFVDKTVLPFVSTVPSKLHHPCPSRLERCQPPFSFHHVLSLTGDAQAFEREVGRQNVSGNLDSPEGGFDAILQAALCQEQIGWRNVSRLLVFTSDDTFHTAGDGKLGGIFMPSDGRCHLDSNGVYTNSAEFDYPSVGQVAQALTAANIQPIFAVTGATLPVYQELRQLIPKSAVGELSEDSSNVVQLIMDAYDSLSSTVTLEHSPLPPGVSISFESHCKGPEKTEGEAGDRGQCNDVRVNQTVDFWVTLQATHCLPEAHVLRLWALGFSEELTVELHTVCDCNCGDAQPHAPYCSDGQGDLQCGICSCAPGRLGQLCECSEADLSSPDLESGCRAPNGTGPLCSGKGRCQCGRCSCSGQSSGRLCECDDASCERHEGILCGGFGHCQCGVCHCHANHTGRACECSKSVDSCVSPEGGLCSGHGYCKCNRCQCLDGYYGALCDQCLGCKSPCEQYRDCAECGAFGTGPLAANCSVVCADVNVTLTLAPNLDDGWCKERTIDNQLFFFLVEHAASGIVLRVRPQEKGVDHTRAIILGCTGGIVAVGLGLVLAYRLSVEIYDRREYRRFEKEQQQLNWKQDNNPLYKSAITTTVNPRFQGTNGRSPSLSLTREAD

B1: SEQ ID NO: 167 (peptide)
peptide: Ac-[Pen][NMeR]SDTL[Pen][Phe(4-tBu)][β3hE][dK]-NH2
modifications: disulfide 1-7; not fully specified (residue 10); printed as (Ac Pen N-Me-R S D T L Pen F(4-tBu) b-H-E k NH2)2 IDA PEG4 Biotin, disulfide Pen-Pen; also: homodimer (…)2 IDA PEG4 Biotin via D-Lys10 NZ
For B1, the IC50 in [1] and in experiment [2] was at most 10 nM throughout.

B2: SEQ ID NO: 133 (peptide)
peptide: Ac-[Pen][NMeR]SDTL[Pen][Phe(4-tBu)]E[NMeK]-NH2
modifications: disulfide 1-7; not fully specified (residue 10); printed as (Ac Pen N-Me-R S D T L Pen F(4tBu) E N-Me-K NH2)2 DIG, disulfide Pen-Pen; also: homodimer, two subunits joined by DIG linker
As for B2, the IC50 in experiment [1] and in [3] was at most 10 nM in each case.

B3: SEQ ID NO: 129 (peptide)
peptide: Ac-[Pen][NMeR]SDTL[Pen][Phe(4-COOH)]E[dK]-NH2
modifications: disulfide 1-7; not fully specified (residue 10); printed as (Ac Pen N-Me-R S D T L Pen F(4-COOH) E k NH2)2 DIG, disulfide Pen-Pen; also: homodimer: two subunits joined by DIG linker
In the case of B3, the IC50 in experiment [1], in experiment [3] and in experiment [2] was at most 10 nM each time.

B4: SEQ ID NO: 22 (peptide)
peptide: Ac-[Pen][NMeR]SDTL[Pen]YE[dK]-NH2
modifications: disulfide 1-7; not fully specified (residue 10); printed as (Ac Pen N-Me-R S D T L Pen Y E k NH2)2 DIG, disulfide Pen-Pen; also: dimer, two subunits joined by DIG linker
Consider B4, for which the IC50 (usually the midpoint of a concentration-inhibition curve) in experiment [4] is above 100 nM; in experiment [3], at most 10 nM; in experiment [2], at most 10 nM.

B5: SEQ ID NO: 86 (peptide)
peptide: Ac-[Pen][NMeR]SDTL[Pen]W[Glu(OMe)][dK]-NH2
modifications: disulfide 1-7; not fully specified (residue 10); printed as (Ac Pen N-Me-R S D T L Pen W E(OMe) k NH2)2 DIG, disulfide Pen-Pen; also: homodimer: two subunits linked by DIG via D-Lys10 side chain
As for B5, the IC50 in experiment [5] and in experiment [2] was at most 10 nM each time.

B6: SEQ ID NO: 205 (peptide)
peptide: Ac-C[NMeR]SDTL[Pen]E[dK]-NH2
modifications: disulfide 1-7; also: homodimer via DIG linker on D-Lys9 side chains
notes: also called peptide 205
As to B6, the IC50 amounted to 444 nM in experiment [6], 2.4 nM in experiment [7] and 26 nM in [8].

B7: SEQ ID NO: 197 (peptide)
peptide: Ac-CRSDTLCGEK-NH2
modifications: disulfide 1-7 (inferred); also: dimer linked by PEG25, attachment not given here
notes: also called peptide 197
As to B7, the IC50 is 964 nM in experiment [6], 36 nM in experiment [7], above 100000 nM in [9] and 301 nM in experiment [8].

B8: SEQ ID NO: 130 (peptide)
peptide: Ac-[Pen][NMeR]SDTL[Pen][Phe(4-COOH)][β3hE][dK]-NH2
modifications: disulfide 1-7; not fully specified (residue 10); printed as (Ac Pen N-Me-R S D T L Pen F(4-COOH) b-H-E k NH2)2 DIG, disulfide Pen-Pen; also: homodimer, two subunits joined by DIG linker
For the molecule B8, the IC50 in experiment [1], in experiment [3] and in experiment [2] was at most 10 nM each time.

B9: SEQ ID NO: 166 (peptide)
peptide: Ac-[Pen][NMeR]SDTL[Pen][Phe(4-tBu)][β3hE][dK]-NH2
modifications: disulfide 1-7; not fully specified (residue 10); printed as (Ac Pen N-Me-R S D T L Pen F(4-tBu) b-H-E k NH2)2 IDA, disulfide Pen-Pen; also: homodimer (…)2 IDA via D-Lys10 NZ
As for B9, the IC50 in experiment [1] and in experiment [2] was at most 10 nM throughout.

B10: SEQ ID NO: 198 (peptide)
peptide: Ac-C[NMeR]SDTLCGE-NH2
modifications: disulfide 1-7 (inferred)
notes: also called peptide 198
In the case of B10, the IC50 in experiment [6] is 1290 nM; in experiment [7], 20 nM; in experiment [9], above 100000 nM; in experiment [8] it was 1120 nM.

B11: SEQ ID NO: 196 (peptide)
peptide: Ac-CRSDTLCGEK-NH2
modifications: disulfide 1-7 (inferred)
notes: also called peptide 196
As for B11, the IC50 in experiment [6] was 4810 nM; in experiment [7] it was 87 nM; in experiment [9] it was above 100000 nM; in experiment [8] it was 6660 nM.

B12: SEQ ID NO: 200 (peptide)
peptide: Ac-C[NMeR]SDTLCK-OH
modifications: disulfide 1-7 (inferred); also: dimer linked by PEG25, attachment not given here
notes: also called peptide 200
With B12, the IC50 in experiment [6] was 16700 nM; in [7], 3 nM; in [9] it was above 100000 nM; in experiment [8], 96 nM.

B13: SEQ ID NO: 147 (peptide)
peptide: Ac-[Pen][NMeR]SDTL[Pen][Phe(4-COOH)]E[NMeK]-NH2
modifications: disulfide 1-7; not fully specified (residue 10); printed as (Ac Pen N-Me-R S D T L Pen F(4-COOH) E N-Me-K NH2)2 DIG, disulfide Pen-Pen; also: homodimer (…)2 DIG via Lys10 NZ
Consider B13, for which the IC50 in experiment [1], in [5], in experiment [3] and in [2] was at most 10 nM throughout.

B14: SEQ ID NO: 148 (peptide)
peptide: Ac-[Pen][NMeR]SDTL[Pen][Phe(4-COOH)][β3hE][NMeK]-NH2
modifications: disulfide 1-7; not fully specified (residue 10); printed as (Ac Pen N-Me-R S D T L Pen F(4-COOH) b-H-E N-Me-K NH2)2 DIG, disulfide Pen-Pen; also: homodimer (…)2 DIG via Lys10 NZ
As to B14, the IC50 in experiment [5], in experiment [3] and in experiment [2] was at most 10 nM throughout.

B15: SEQ ID NO: 168 (peptide)
peptide: Ac-[Pen][NMeR]SDTL[Pen][Phe(4-tBu)][β3hE][dK]-OH
modifications: disulfide 1-7; not fully specified (residue 10); printed as (Ac Pen N-Me-R S D T L Pen F(4tBu) b-H-E k OH)2 DIG, disulfide Pen-Pen; also: homodimer (…)2 DIG via D-Lys10 NZ
Consider B15, for which the IC50 in experiment [1] and in experiment [2] was at most 10 nM each time.

B16: SEQ ID NO: 54 (peptide)
peptide: [βAla][Pen][NMeR]SDTL[Pen]WE-NH2
modifications: disulfide 2-8; not fully specified (N-terminus); printed as DIG (NH2 Beta-Ala Pen N-Me-R S D T L Pen W E NH2)2, disulfide Pen-Pen; also: homodimer: two subunits linked by DIG via N-terminal Beta-Ala amine
notes: linker printed at the N-terminus
Regarding B16, the IC50 in [4] was above 100 nM; in experiment [2], above 25 nM.

B17: SEQ ID NO: 202 (peptide)
peptide: Ac-C[NMeR]SDTL[Pen][dK]-NH2
modifications: disulfide 1-7
SMILES: CC(=O)N[C@H]1CSSC(C)(C)[C@@H](C(=O)N[C@H](CCCCN)C(N)=O)NC(=O)[C@H](CC(C)C)NC(=O)[C@H]([C@@H](C)O)NC(=O)[C@H](CC(=O)O)NC(=O)[C@H](CO)NC(=O)[C@H](CCCNC(=N)N)N(C)C1=O
Consider B17, for which the IC50 in experiment [6] was 1620 nM; in experiment [7] it was 87 nM; in experiment [9], above 100000 nM; in [8], 11000 nM.

B18: SEQ ID NO: 165 (peptide)
peptide: Ac-[Pen][NMeR]SDTL[Pen][Phe(4-tBu)][β3hE]-NH2
modifications: disulfide 1-7
SMILES: CC(=O)N[C@@H]1C(=O)N(C)[C@@H](CCCNC(=N)N)C(=O)N[C@@H](CO)C(=O)N[C@@H](CC(=O)O)C(=O)N[C@@H]([C@@H](C)O)C(=O)N[C@@H](CC(C)C)C(=O)N[C@H](C(=O)N[C@@H](Cc2ccc(C(C)(C)C)cc2)C(=O)N[C@@H](CCC(=O)O)CC(N)=O)C(C)(C)SSC1(C)C
As for B18, the IC50 in experiment [1] was above 100 nM; in experiment [2] it was above 10 nM.
